Test results: US9937265B2, “Self-assembling peptide and polysaccharide complexes” (University of Leeds, priority 2013, dated 2018)

Tests used:
Format in all cases: physicochemical
[1] = Visual observation of gelation of peptide and peptide:GAG samples (systematic mixing study); conditions: for Gel appearance: 20 mg/ml (Table 3); for Time to gel 20 mg/ml / self-assembly and gelation / time to form a self-supporting gel (gelation time) / Gel lifetime 20 mg/ml: 20 mg/ml peptide; for c*gel: peptide alone
Description: Preparation of Peptide Solutions
Solutions of peptides were prepared directly in either D2O or H2O containing either 130 or 200 mM NaCl or PBS. Peptide concentrations in the millimolar range given for the NMR studies were values multiplied by an appropriate factor to account for the actual percentage peptide content. The samples were vortexed for 20 seconds, and then sonicated for 15 minutes. Solution pD was measured and adjusted to either 7.4 or 6.0±0.5 using a calibrated pH meter and the relation pD =pH meter reading +0.417. Any adjustment of pD, if necessary, was made with minimal μL volumes of either HCl or DCl and/or either NaOH or NaOD. Finally, solution vials were closed, sealed with PTFE tape, and then warmed to approximately 80° C. to maximise peptide solubility. Solutions were left to equilibrate at room temperature.
Preparation of Peptide:Glycosaminoglycan Gels.
The concentration of peptide was kept constant for each sample (20 mg/ml) and the molar ratio of GAG subunit to one peptide was increased. The samples were named by the number of GAG subunits to each peptide present e.g. P11-12:GAG 1:10=one P11-12 peptide monomer to ten GAG dimer subunits. GAG was added to peptide solutions after preparation as stated above. The mixtures were vortexed as heated again to ensure complete mixing.
The effects of mixing chondroitin sulphate GAG with the peptides were investigated. It was hypothesised that the charged GAG chains would interact electrostatically with the charged peptides. To establish whether such an interaction was possible, visual observations of a systematic mixing study was carried out and the morphology of the aggregates formed during mixing studied using TEM. • P11-4: […]

[2] = High resolution 1H-NMR study of peptide self-assembly as a function of concentration and time (c*); conditions: for c*: critical concentration for aggregation, physiological-like solution, with GAG estimated from monomer level at ~5000 μM total peptide
Description: High Resolution ^1H-NMR Study of Peptide Self-Assembly as a Function of Concentration
(2,2,3,3-d4)-trimethylsilyl-3-propionic acid (TMSP, chemical shift 0 ppm) an internal reference standard was added to all peptide solutions. NMR data were acquired at room temperature. A pre-saturation program was used to minimize the water peak, and 1024 scans were measured per spectrum. Sample spectra were recorded at various time-points after preparation to ensure the solutions had reached stable equilibrium. The aromatic multiplet at chemical shift 6.9-7.8 ppm was integrated, relative to the reference peak.
High resolution solution ^1H NMR was used to follow the self-assembly of the peptides in physiological-like solutions as a function of time. To measure self-assembly, the line width broadening of the NMR spectra is exploited. The population of peptide in an aggregated state gives rise to spectra that are so broad that they are lost in the baseline; in contrast, the population of peptide in monomeric state gives rise to high resolution spectra. By integrating the splitting pattern arising from the aromatic region and normalising it with respect to the peak observed due to a known standard, the fraction of monomer can be estimated.

[3] = Rheological study of peptide and peptide:glycosaminoglycan gels (amplitude and frequency sweeps); conditions: for G′ at 2 Hz 20 mg/ml / G″ at 2 Hz 20 mg/ml: 2 Hz (walking frequency); for G′ at 2 Hz 20 mg/ml / G″ at 2 Hz 20 mg/ml / plateau elastic modulus G′N°: 25° C.; for J, lower limit of the distance between nearest cross links: calculated from plateau elastic modulus by rubber-like elasticity theory, T=298K; for plateau elastic modulus G′N° / Phase angle: peptide gels in PBS at 20 mg/ml; for Phase angle: 25° C. (Table 2)
Description: Rheological Study of Peptide:Glycosaminoglycan Gels
Measurements were performed using a cone-plate geometry (cone angle: 1°, diameter: 50 mm, gap: 0.033 mm). All the tests were performed at 25° C., utilizing a solvent trap and the atmosphere within was kept saturated to minimize evaporation of the peptide samples. To ensure the measurements were made in the linear viscoelastic regime (LVER), amplitude sweeps were performed in a shear strain controlled mode from 0.01-100%. Two amplitude sweeps were carried out for each sample (1 Hz and 20 Hz) and a strain level was chosen at which the elastic modulus (G′) and viscous modulus (G″) were independent of strain amplitude at the two different frequency levels. The dynamic moduli of the hydrogels were measured as a frequency function with the sweeps carried out between 1 and 20 Hz. Samples were allowed to equilibrate for 15 minutes once loaded prior to the start of testing. Fresh samples were used for the amplitude and frequency sweeps. After the frequency sweeps, two more amplitude weeps (1 Hz and 20 Hz) were carried out in a stress controlled mode to confirm the testing was performed within the LVER. The stress range was chosen based on the stress values from the frequency sweeps at 1 and 20 Hz: if these two values were then independent of stress amplitude, then this confirmed that testing was within the LVER.
Tests were conducted to provide a peptide gel of similar stiffness to that of the nucleus pulposus. Rheometry was carried out on the peptide gels in PBS at 20 mg/ml. Amplitude sweeps were first carried out to determine the LVER region.
The rheological properties of the peptide:GAG samples were examined and compared to the rheological properties of peptides alone to establish how the addition of GAG affected the material properties of the gels. The frequency sweeps from the study (data not shown) for the various peptide:GAG combinations can be summarized as follows: P11-4: GAG and viscous modulus vs. frequency, starting frequency 1 Hz, end frequency: 20 Hz, strain controlled: 0.15% (control), 0.175% (1:2) and 0.04% (1:10). Temp: 25° C. 20 days old. P11-8:GAG elastic and viscous modulus vs. frequency, starting frequency 1 Hz, end frequency: 20 Hz, Strain controlled: 0.1% (1:2 and 1:10), Temp: 25° C., 1.5 months old. P11-9:GAG elastic and viscous modulus vs. frequency, starting frequency 1 Hz, end frequency: 20 Hz, Strain controlled: 0.5%, Temp: 25° C. P11-12:GAG Elastic and viscous modulus vs. frequency, starting frequency 1 Hz, end frequency: 20 Hz, Strain controlled: 0.25% (1:0.5), 0.1% (1:2), 0.05% (1:10), 0.15% (1:100), Temp: 25° C. 1:0.5, 1:2 and 1:10 2 months old and 1:100 6 days old. • P11-4: […]

[4] = Peptide dissolution from gel into supernatant (UV spectroscopy, 279 nm); conditions: at 3-4 days, 20 mg/ml gel
Description: 2.5 ml of 130 mM NaCl, D2O, pD 7.4 supernatant was added on top of the SAP:GAG gels. The concentration of peptide dissolved into the supernatant as a function of time was determined via UV spectroscopy. The UV wavelength of 279 nm corresponds to the […] of the tryptophan residue, found in position 6 of the SAP, and so this can be used to determine the molar concentration of the peptide taking into account the molar extinction coefficient of the tryptophan residue.

CH3CO-Q-Q-O-F-O-W-O-F-O-Q-Q-NH2 (QQXFXWXFXQQ; HELM PEPTIDE1{[ac].Q.Q.[Orn].F.[Orn].W.[Orn].F.[Orn].Q.Q.[am]}$$$$V2.0; SMILES CC(=O)N[C@@H](CCC(N)=O)C(=O)N[C@@H](CCC(N)=O)C(=O)N[C@@H](CCCN)C(=O)N[C@@H](Cc1ccccc1)C(=O)N[C@@H](CCCN)C(=O)N[C@@H](Cc1c[nH]c2ccccc12)C(=O)N[C@@H](CCCN)C(=O)N[C@@H](Cc1ccccc1)C(=O)N[C@@H](CCCN)C(=O)N[C@@H](CCC(N)=O)C(=O)N[C@@H](CCC(N)=O)C(N)=O) [Peptide P11-14]
Gel appearance [1]: Clear liquid
Time to gel 20 mg/ml [1]: never
self-assembly and gelation [1]: does not self-assemble
c* [2]: >3600 µM

CH3CO-O-Q-O-F-O-W-O-F-O-Q-O-NH2 [Peptide P11-28]
Gel appearance [1]: Clear liquid
Time to gel 20 mg/ml [1]: never
self-assembly and gelation [1]: does not self-assemble
c* [2]: >3100 µM

CH3CO-Q-Q-R-F-E-W-E-F-E-Q-Q-NH2 (Ac-QQRFEWEFEQQ-NH2) [Peptide P11-4]
Gel appearance [1]: Slightly cloudy
Time to gel 20 mg/ml [1]: mins-hours
time to form a self-supporting gel (gelation time) [1]: hours
Gel lifetime 20 mg/ml ([1]; unit in cell beside): >1 mth
c*gel [1]: 2000 ± 600 µM
c* [2]: 310 ± 140 µM
G′ at 2 Hz 20 mg/ml [3]: 1,065 Pa
G″ at 2 Hz 20 mg/ml [3]: 205 Pa

CH3CO-S-S-R-F-O-W-O-F-E-S-S-NH2 (SSRFXWXFESS; HELM PEPTIDE1{[ac].S.S.R.F.[Orn].W.[Orn].F.E.S.S.[am]}$$$$V2.0; SMILES CC(=O)N[C@@H](CO)C(=O)N[C@@H](CO)C(=O)N[C@@H](CCCNC(=N)N)C(=O)N[C@@H](Cc1ccccc1)C(=O)N[C@@H](CCCN)C(=O)N[C@@H](Cc1c[nH]c2ccccc12)C(=O)N[C@@H](CCCN)C(=O)N[C@@H](Cc1ccccc1)C(=O)N[C@@H](CCC(=O)O)C(=O)N[C@@H](CO)C(=O)N[C@@H](CO)C(N)=O) [Peptide P11-12]
peptide dissolved from the gel [4]: 39.9±9.15%
Gel appearance [1]: Cloudy self-
Time to gel 20 mg/ml [1]: minutes
time to form a self-supporting gel (gelation time) [1]: minutes
c*gel [1]: 2300 ± 750 µM
time to reach equilibrium state of self-assembly ([2]; 1H NMR aromatic integral vs time, without GAG): around 1 month
c* [2]: 2300 ± 750 µM
G′ at 2 Hz 20 mg/ml [3]: 20,510 Pa
G″ at 2 Hz 20 mg/ml [3]: 3067 Pa
J, lower limit of the distance between nearest cross links [3]: 7.2 nm
gel stiffness / moduli compared, in words ([3]; frequency sweeps, compared with peptide alone or other gels): forms the stiffest gel
plateau elastic modulus G′N° [3]: 22,285 kg m^−1s^−2
Phase angle [3]: ~9°

CH3CO-S-S-R-F-E-W-E-F-E-S-S-NH2 (Ac-SSRFEWEFESS-NH2) [Peptide P11-9]
Gel appearance [1]: Clear self-
Time to gel 20 mg/ml [1]: minutes
time to form a self-supporting gel (gelation time) [1]: minutes
gel state on storage ([1]; after a year): still a self-supporting gel
c*gel [1]: 4500 ± 1500 µM
c* [2]: 1160 ± 175 µM
G′ at 2 Hz 20 mg/ml [3]: 8 Pa
G″ at 2 Hz 20 mg/ml [3]: 5 Pa

CH3CO-Q-Q-R-F-O-W-O-F-E-Q-Q-NH2 (QQRFXWXFEQQ; HELM PEPTIDE1{[ac].Q.Q.R.F.[Orn].W.[Orn].F.E.Q.Q.[am]}$$$$V2.0; SMILES CC(=O)N[C@@H](CCC(N)=O)C(=O)N[C@@H](CCC(N)=O)C(=O)N[C@@H](CCCNC(=N)N)C(=O)N[C@@H](Cc1ccccc1)C(=O)N[C@@H](CCCN)C(=O)N[C@@H](Cc1c[nH]c2ccccc12)C(=O)N[C@@H](CCCN)C(=O)N[C@@H](Cc1ccccc1)C(=O)N[C@@H](CCC(=O)O)C(=O)N[C@@H](CCC(N)=O)C(=O)N[C@@H](CCC(N)=O)C(N)=O) [Peptide P11-8]
Gel appearance [1]: Inhomogenous
Time to gel 20 mg/ml [1]: days
time to form a self-supporting gel (gelation time) [1]: days
Gel lifetime 20 mg/ml ([1]; yr and mths or words printed in the cell): Still some self-
c*gel [1]: 2000 ± 600 µM
c* [2]: 400 ± 100 µM
G′ at 2 Hz 20 mg/ml [3]: 4,881 Pa
G″ at 2 Hz 20 mg/ml [3]: 552 Pa
J, lower limit of the distance between nearest cross links [3]: 11.6 nm
plateau elastic modulus G′N° [3]: 5,221 kg m^−1s^−2
Phase angle [3]: ~8°
